Results on 1 substance are retold here after publication PMC6220479.

Assay [1] concerns the target TIM-3 expressed on activated human T cells (human (endogenous in activated T cells)) (UniProt Q8TDQ0).
Assay [2] has the same target. As to the kind of experiment: Scatchard analysis; on activated human T cells.
For assay [3] the target is unchanged. As to the kind of experiment: flow cytometry on cells; FACS on activated human T cells.

pEC50, pKd: −log10 of the molar value.

Chain of UniProt Q8TDQ0 (Q8TDQ0 22-301): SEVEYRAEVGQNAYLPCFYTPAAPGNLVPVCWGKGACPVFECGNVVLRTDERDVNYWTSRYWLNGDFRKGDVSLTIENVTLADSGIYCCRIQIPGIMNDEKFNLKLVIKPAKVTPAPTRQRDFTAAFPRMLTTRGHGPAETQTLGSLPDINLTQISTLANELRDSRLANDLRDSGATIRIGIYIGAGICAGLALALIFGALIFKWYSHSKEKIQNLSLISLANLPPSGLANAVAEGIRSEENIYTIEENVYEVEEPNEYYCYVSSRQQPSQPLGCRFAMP

On to “BMS-986258, fully human immunoglobulin (Ig)G1 anti-TIM-3 monoclonal antibody”, for which, in assay [1], the EC50 in a human tumor TIL assay (IFN-gamma; TIL co-cultured with irradiated CHO-OKT3 cells) came out at 1.2 nM. Further, in assay [2], the negative logarithm of the Kd (pKd) was 9.80. Further, in assay [3], the negative logarithm of the EC50 (pEC50) is 10.00.

The pKd is the negative decadic logarithm of the Kd, by convention in mol/L. The low end stands for a high Kd, the high end for a low Kd. A word on the pEC50: it is −log10 of the EC50, conventionally taken in molar units. A high value points to a small EC50.
